Laboratory results published in patent US20100272712.

Test system: active JNK3 purified protein (Upstate)

| Protein | in vitro phosphatase assay (JNK3 phosphorylation by western blot) | in vitro phosphatase activity analysis (JNK3 phosphorylation by western blot) | in vitro phosphatase activity analysis after GSNO treatment of MKP7 |
| --- | --- | --- | --- |
| Flag-tagged MKP7-ΔC (A.A.1-317, retaining the catalytic domain) (enzyme, UniProt Q9BY84 1-317, looked up, species assumed, Flag tag) MAHEMIGTQIVTERLVALLESGTEKVLLIDSRPFVEYNTSHILEAININCSKLMKRRLQQDKVLITELIQHSAKHKVDIDCSQKVVVYDQSSQDVASLSSDCFLTVLLGKLEKSFNSVHLLAGGFAEFSRCFPGLCEGKSTLVPTCISQPCLPVANIGPTRILPNLYLGCQRDVLNKELMQQNGIGYVLNASNTCPKPDFIPESHFLRVPVNDSFCEKILPWLDKSVDFIEKAKASNGCVLVHCLAGISRSATIAIAYIMKRMDMSLDEAYRFVKEKRPTISPNFNFLGQLLDYEKKIKNQTGASGPKSKLKLLHLE | Both MKP7-WT and MKP7-ΔC possessed strong phosphatase activities as detected by the decreased phosphorylation of JNK3 |  |  |
| Flag-tagged MKP7-ΔC (C244S) (enzyme, UniProt Q9BY84 1-317 with C244S, looked up, species assumed, Flag tag) MAHEMIGTQIVTERLVALLESGTEKVLLIDSRPFVEYNTSHILEAININCSKLMKRRLQQDKVLITELIQHSAKHKVDIDCSQKVVVYDQSSQDVASLSSDCFLTVLLGKLEKSFNSVHLLAGGFAEFSRCFPGLCEGKSTLVPTCISQPCLPVANIGPTRILPNLYLGCQRDVLNKELMQQNGIGYVLNASNTCPKPDFIPESHFLRVPVNDSFCEKILPWLDKSVDFIEKAKASNGCVLVHSLAGISRSATIAIAYIMKRMDMSLDEAYRFVKEKRPTISPNFNFLGQLLDYEKKIKNQTGASGPKSKLKLLHLE | the phosphatase activity of MKP7-ΔC (C^244S) was much lower than that of MKP7-WT or MKP7-ΔC protein, and the activity after GSNO treatment was essentially unchanged |  |  |
| Myc-MKP7 (enzyme, UniProt Q9BY84 1-665, looked up, species assumed, full-length Myc tag) MAHEMIGTQIVTERLVALLESGTEKVLLIDSRPFVEYNTSHILEAININCSKLMKRRLQQDKVLITELIQHSAKHKVDIDCSQKVVVYDQSSQDVASLSSDCFLTVLLGKLEKSFNSVHLLAGGFAEFSRCFPGLCEGKSTLVPTCISQPCLPVANIGPTRILPNLYLGCQRDVLNKELMQQNGIGYVLNASNTCPKPDFIPESHFLRVPVNDSFCEKILPWLDKSVDFIEKAKASNGCVLVHCLAGISRSATIAIAYIMKRMDMSLDEAYRFVKEKRPTISPNFNFLGQLLDYEKKIKNQTGASGPKSKLKLLHLEKPNEPVPAVSEGGQKSETPLSPPCADSATSEAAGQRPVHPASVPSVPSVQPSLLEDSPLVQALSGLHLSADRLEDSNKLKRSFSLDIKSVSYSASMAASLHGFSSSEDALEYYKPSTTLDGTNKLCQFSPVQELSEQTPETSPDKEEASIPKKLQTARPSDSQSKRLHSVRTSSSGTAQRSLLSPLHRSGSVEDNYHTSFLFGLSTSQQHLTKSAGLGLKGWHSDILAPQTSTPSLTSSWYFATESSHFYSASAIYGGSASYSAYSCSQLPTCGDQVYSVRRRQKPSDRADSRRSWHEESPFEKQFKRRSCQMEFGESIMSENRSREELGKVGSQSSFSGSMEIIEVS |  | The ectopically-expressed MKP7 protein exhibited strong phosphatase activity as demonstrated by the decrease in JNK3 phosphorylation | nitrosylation of MKP7 by GSNO markedly inhibited MKP7 phosphatase activity |
| Flag-tagged MKP7-WT (enzyme, UniProt Q9BY84 1-665, looked up, species assumed, full-length Flag tag) MAHEMIGTQIVTERLVALLESGTEKVLLIDSRPFVEYNTSHILEAININCSKLMKRRLQQDKVLITELIQHSAKHKVDIDCSQKVVVYDQSSQDVASLSSDCFLTVLLGKLEKSFNSVHLLAGGFAEFSRCFPGLCEGKSTLVPTCISQPCLPVANIGPTRILPNLYLGCQRDVLNKELMQQNGIGYVLNASNTCPKPDFIPESHFLRVPVNDSFCEKILPWLDKSVDFIEKAKASNGCVLVHCLAGISRSATIAIAYIMKRMDMSLDEAYRFVKEKRPTISPNFNFLGQLLDYEKKIKNQTGASGPKSKLKLLHLEKPNEPVPAVSEGGQKSETPLSPPCADSATSEAAGQRPVHPASVPSVPSVQPSLLEDSPLVQALSGLHLSADRLEDSNKLKRSFSLDIKSVSYSASMAASLHGFSSSEDALEYYKPSTTLDGTNKLCQFSPVQELSEQTPETSPDKEEASIPKKLQTARPSDSQSKRLHSVRTSSSGTAQRSLLSPLHRSGSVEDNYHTSFLFGLSTSQQHLTKSAGLGLKGWHSDILAPQTSTPSLTSSWYFATESSHFYSASAIYGGSASYSAYSCSQLPTCGDQVYSVRRRQKPSDRADSRRSWHEESPFEKQFKRRSCQMEFGESIMSENRSREELGKVGSQSSFSGSMEIIEVS | Both MKP7-WT and MKP7-ΔC possessed strong phosphatase activities as detected by the decreased phosphorylation of JNK3 |  |  |
